Common to all, as to assay: cell-based or functional assay
One data set deals with T1, MGYPDa23 (unidentified).
T1 chain: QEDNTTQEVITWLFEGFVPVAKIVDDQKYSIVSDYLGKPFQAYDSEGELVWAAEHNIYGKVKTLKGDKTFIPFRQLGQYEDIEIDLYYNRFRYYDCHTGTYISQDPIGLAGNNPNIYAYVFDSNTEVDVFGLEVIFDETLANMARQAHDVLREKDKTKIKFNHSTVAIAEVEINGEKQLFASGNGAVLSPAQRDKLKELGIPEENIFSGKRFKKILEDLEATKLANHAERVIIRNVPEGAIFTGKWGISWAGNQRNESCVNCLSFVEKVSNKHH

A further data set addresses T2, LbsDa01 (Simiaoa sunii).
T2 chain: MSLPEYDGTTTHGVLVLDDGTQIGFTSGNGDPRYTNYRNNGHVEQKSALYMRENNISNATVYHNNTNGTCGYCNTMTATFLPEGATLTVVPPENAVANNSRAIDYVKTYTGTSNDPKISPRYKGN

In another data set the target is T3, RaDa01 (Ruminococcus sp.).
T3 chain: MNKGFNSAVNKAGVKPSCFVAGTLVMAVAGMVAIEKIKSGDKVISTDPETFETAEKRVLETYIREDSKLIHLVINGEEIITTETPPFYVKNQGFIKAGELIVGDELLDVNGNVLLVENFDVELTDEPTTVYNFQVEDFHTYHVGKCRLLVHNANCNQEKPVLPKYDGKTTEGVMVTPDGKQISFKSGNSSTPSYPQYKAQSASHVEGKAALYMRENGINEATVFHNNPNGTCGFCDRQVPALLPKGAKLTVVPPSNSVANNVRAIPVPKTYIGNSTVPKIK

For another data set, the target named is T4, d38_MGYPDa829 (unidentified).
T4 chain: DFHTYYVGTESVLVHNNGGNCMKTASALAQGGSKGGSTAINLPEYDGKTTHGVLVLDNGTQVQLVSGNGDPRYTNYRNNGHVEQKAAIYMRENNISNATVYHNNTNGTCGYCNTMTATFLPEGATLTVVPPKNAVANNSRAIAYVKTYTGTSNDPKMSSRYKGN

The target of the next data set is T5, AvDa02 (Actinomyces viscosus).
T5 chain: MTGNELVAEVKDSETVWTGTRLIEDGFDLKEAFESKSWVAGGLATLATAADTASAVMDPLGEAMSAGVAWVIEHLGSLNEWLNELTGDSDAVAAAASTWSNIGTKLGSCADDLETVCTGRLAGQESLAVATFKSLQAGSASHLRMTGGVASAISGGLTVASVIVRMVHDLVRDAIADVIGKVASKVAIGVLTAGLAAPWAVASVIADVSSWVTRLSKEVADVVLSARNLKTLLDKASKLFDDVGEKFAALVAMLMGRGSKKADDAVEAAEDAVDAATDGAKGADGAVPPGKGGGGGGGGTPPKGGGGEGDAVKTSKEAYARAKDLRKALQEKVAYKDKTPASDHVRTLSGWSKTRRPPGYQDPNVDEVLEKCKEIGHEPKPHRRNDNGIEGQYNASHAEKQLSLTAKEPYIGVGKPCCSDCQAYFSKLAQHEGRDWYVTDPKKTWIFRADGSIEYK

For a further data set, the target named is T6, CrDa01 (Clostridium roseum).
T6 chain: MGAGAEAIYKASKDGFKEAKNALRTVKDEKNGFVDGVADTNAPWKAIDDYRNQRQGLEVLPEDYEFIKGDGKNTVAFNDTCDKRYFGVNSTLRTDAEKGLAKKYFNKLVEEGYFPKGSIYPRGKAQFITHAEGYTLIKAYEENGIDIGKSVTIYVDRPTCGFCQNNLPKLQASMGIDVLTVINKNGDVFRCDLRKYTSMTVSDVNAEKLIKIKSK

For a further data set, the target named is MGYPDa01 (unidentified).
Sequence of MGYPDa01 (unidentified) (chain, as listed by the source): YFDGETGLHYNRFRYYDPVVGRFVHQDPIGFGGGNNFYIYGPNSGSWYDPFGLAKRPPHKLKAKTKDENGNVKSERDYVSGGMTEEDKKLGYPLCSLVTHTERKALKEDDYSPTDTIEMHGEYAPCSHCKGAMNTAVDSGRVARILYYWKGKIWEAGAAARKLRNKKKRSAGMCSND
A further data set has as its target T7, MGYPDa20 (unidentified).
T7 chain: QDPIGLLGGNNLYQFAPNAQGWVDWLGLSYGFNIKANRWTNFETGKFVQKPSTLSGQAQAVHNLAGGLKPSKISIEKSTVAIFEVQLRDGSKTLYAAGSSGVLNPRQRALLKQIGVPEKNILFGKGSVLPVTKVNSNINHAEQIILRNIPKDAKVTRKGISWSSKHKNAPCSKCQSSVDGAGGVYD

B1: 40 bp 5caC oligo (dsDNA)
DNA 1: AAATTTAATTATAAAACGATCGACGACGAAATAATAAAAA
DNA 2: TTTTTATTATTTCGTCGTCGATCGTTTTATAATTAAATTT
modifications: 5caC at all four C of the listed strand sites
For the molecule B1, the activity stood at 0.02 fraction deaminated with MGYPDa23, 0.1 fraction deaminated with LbsDa01, 0.47 fraction deaminated in the data set with RaDa01 and 0.1 fraction deaminated with d38_MGYPDa829.

B2: 40 bp 5fC oligo (dsDNA)
DNA 1: B1 DNA 1
DNA 2: B1 DNA 2
modifications: 5fC at all four C of the listed strand sites
B2: the activity in the data set with MGYPDa23 is 0.23 fraction deaminated; with LbsDa01 it was 0.14 fraction deaminated; in the data set with AvDa02 it was 0.08 fraction deaminated; with CrDa01 it was 0.09 fraction deaminated; with RaDa01 it was 0.66 fraction deaminated; with d38_MGYPDa829, 0.12 fraction deaminated.

B3: 40 bp control C oligo (dsDNA)
DNA 1: B1 DNA 1
DNA 2: B1 DNA 2
For B3, the activity in the data set with MGYPDa23 was found to be 0.97 fraction deaminated; with LbsDa01 it was 0.92 fraction deaminated; in the data set with MGYPDa01, 0.12 fraction deaminated; in the data set with CrDa01 it was 0.98 fraction deaminated; in the data set with MGYPDa20 it was 0.59 fraction deaminated; with RaDa01, 0.98 fraction deaminated. In the data set with d38_MGYPDa829, this molecule showed an activity of 0.88 fraction deaminated.

Source of the values: patent US20230357838, “Double-Stranded DNA Deaminases and Uses Thereof” (New England Biolabs, Inc., published 2023).
